Test results from article PMC5779224 (2017).

Experiments:
[1] = biological target: T1, AnkG 38–903 (MBD + AI-c + AI-b) (rat, UniProt O70511-1 38-903); assay: ITC
T1 chain: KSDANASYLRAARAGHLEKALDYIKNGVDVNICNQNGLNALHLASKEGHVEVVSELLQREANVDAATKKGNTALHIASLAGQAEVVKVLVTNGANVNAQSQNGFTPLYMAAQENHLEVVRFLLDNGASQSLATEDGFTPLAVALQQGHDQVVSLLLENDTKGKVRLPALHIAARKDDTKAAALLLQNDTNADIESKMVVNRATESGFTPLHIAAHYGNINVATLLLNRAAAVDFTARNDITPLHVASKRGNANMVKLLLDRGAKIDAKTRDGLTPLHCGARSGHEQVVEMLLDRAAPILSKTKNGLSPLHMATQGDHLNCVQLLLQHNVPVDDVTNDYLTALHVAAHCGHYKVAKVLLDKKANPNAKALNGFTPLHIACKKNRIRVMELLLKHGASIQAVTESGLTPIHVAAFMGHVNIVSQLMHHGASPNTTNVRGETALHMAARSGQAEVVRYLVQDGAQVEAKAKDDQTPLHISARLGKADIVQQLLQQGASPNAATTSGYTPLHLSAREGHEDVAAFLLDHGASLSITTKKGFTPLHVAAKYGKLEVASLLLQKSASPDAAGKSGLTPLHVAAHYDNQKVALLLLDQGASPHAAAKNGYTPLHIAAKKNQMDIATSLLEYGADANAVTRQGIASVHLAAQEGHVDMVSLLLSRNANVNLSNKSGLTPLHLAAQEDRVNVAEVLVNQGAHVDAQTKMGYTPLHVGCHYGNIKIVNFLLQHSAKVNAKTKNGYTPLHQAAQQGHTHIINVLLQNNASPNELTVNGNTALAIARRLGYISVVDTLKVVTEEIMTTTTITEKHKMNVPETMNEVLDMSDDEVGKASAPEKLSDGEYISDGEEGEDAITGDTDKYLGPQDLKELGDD

[2] = biological target: T2, AnkB 28–965 (MBD + AI-c + AI-b) (human, UniProt Q01484-2 28-965); assay: ITC
T2 chain: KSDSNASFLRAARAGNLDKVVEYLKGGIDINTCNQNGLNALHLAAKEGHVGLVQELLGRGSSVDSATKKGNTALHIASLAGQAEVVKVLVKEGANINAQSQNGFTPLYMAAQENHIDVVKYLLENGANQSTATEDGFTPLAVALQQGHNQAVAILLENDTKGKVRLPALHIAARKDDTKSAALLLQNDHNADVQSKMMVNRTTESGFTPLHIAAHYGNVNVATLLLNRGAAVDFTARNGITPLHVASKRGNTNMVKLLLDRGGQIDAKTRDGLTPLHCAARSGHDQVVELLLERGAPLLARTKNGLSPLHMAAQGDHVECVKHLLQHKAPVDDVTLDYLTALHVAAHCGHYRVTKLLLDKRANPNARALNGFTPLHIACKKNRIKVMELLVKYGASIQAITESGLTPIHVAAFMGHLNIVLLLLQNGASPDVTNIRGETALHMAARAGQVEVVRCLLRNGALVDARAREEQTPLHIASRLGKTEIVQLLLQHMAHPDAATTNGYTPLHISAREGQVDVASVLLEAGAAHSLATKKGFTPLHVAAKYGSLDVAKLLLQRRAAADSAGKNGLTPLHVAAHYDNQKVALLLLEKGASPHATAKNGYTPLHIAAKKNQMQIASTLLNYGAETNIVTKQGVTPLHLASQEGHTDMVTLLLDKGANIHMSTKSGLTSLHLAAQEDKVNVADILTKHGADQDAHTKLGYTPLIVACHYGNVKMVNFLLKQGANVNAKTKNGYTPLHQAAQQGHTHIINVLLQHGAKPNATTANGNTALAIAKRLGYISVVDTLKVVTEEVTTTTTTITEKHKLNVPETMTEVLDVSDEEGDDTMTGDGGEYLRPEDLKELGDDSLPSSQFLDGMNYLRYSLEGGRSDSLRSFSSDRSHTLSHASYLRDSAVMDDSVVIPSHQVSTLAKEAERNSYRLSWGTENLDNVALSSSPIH

SDDSLVDYGEGGEGQFNEDGSFIGQYTV (domain or fragment) [NF186 (aa 1187–1214)] showed a Kd [1] of 4.2 µM and a Kd [2] of 23 µM.
